According to patent US20160257732A1 (published 2016):
Values joined by “and” are separate entries in the source; they are usually repeats but may differ in a detail not shown here. Identical values can stand only once. Like-named read-outs stand apart in the source and are kept apart here.

Tests used:
Test in all cases: cell-based or functional assay
[1] = biological target: HA of ca A/Vietnam/1203/04 (H5N1) (influenza A virus)
[2] = biological target: HA of A/Hong Kong/8/68 (H3N2) (influenza A virus)
[3] = biological target: HA of A/Victoria/361/11 (H3N2) (influenza A virus)
[4] = biological target: HA of ca A/Sydney/5/97 (H3N2) (influenza A virus)
[5] = biological target: HA of A/Victoria/3/75 (H3N2) (influenza A virus)
[6] = biological target: HA of A/New Jersey/8/76 (H1N1) (influenza A virus)
[7] = biological target: HA of ca A/Texas/36/91 (H1N1) (influenza A virus)
[8] = biological target: HA of A/Kawasaki/9/86 (H1N1) (influenza A virus)
[9] = biological target: HA of ca A/Perth/16/09 (H3N2) (influenza A virus)
[10] = biological target: HA of ca A/Beijing/262/95 (H1N1) (influenza A virus)
[11] = biological target: HA of ca A/teal/Hong Kong/W312/97 (H6N1) (influenza A virus)
[12] = biological target: HA of ca A/swine/Missouri/06 (H2N3) (influenza A virus)
[13] = biological target: HA of ca A/Hong Kong/213/03 (H5N1) (influenza A virus)
[14] = biological target: HA of A/Wisconsin/67/05 (H3N2) (influenza A virus)
[15] = biological target: HA of ca A/Panama/2007/99 (H3N2) (influenza A virus)
[16] = biological target: T1, HA of ca A/Brit. Columbia/CN-6/04 (H7N3-LP) (influenza A virus)
[17] = biological target: HA of A/Fort Monmouth/1/47 (H1N1) (influenza A virus)
[18] = biological target: HA of ca A/Japan/57 (H2N2) (influenza A virus)
[19] = biological target: HA of ca A/Netherlands/219/03 (H7N7) (influenza A virus)
[20] = biological target: T2, HA of ca A/chicken/Hong Kong/G9/97 (H9N2) (influenza A virus)
[21] = biological target: HA of ca A/New Caledonia/20/99 (H1N1) (influenza A virus)
[22] = biological target: HA of ca A/Anhui/1/13 (H7N9) (influenza A virus)
[23] = biological target: HA of ca A/mallard/Alberta/89/85 (H6N2) (influenza A virus)
HA of virus H1-BS10 = biological target: HA of virus H1-BS10
[24] = biological target: HA of swine-origin A/Minnesota/11/2010 H3N2 virus (influenza A virus)
[25] = biological target: HA of ca A/Vietnam/1203/04 (H5N1) (influenza A virus); remark: listed apart in the source
[26] = biological target: HA of A/Hong Kong/8/68 (H3N2) (influenza A virus); remark: listed apart in the source
[27] = biological target: HA of ca A/Sydney/5/97 (H3N2) (influenza A virus); remark: listed apart in the source
[28] = biological target: HA of A/Victoria/3/75 (H3N2) (influenza A virus); remark: listed apart in the source
[29] = biological target: HA of A/New Jersey/8/76 (H1N1) (influenza A virus); remark: listed apart in the source
[30] = biological target: HA of ca A/Texas/36/91 (H1N1) (influenza A virus); remark: listed apart in the source
[31] = biological target: HA of A/Kawasaki/9/86 (H1N1) (influenza A virus); remark: listed apart in the source
[32] = biological target: HA of ca A/Perth/16/09 (H3N2) (influenza A virus); remark: listed apart in the source
[33] = biological target: HA of ca A/Beijing/262/95 (H1N1) (influenza A virus); remark: listed apart in the source
[34] = biological target: HA of ca A/teal/Hong Kong/W312/97 (H6N1) (influenza A virus); remark: listed apart in the source
[35] = biological target: HA of ca A/swine/Missouri/06 (H2N3) (influenza A virus); remark: listed apart in the source
[36] = biological target: HA of ca A/Hong Kong/213/03 (H5N1) (influenza A virus); remark: listed apart in the source
[37] = biological target: HA of A/Wisconsin/67/05 (H3N2) (influenza A virus); remark: listed apart in the source
[38] = biological target: HA of ca A/Panama/2007/99 (H3N2) (influenza A virus); remark: listed apart in the source
[39] = biological target: T1, HA of ca A/Brit. Columbia/CN-6/04 …; remark: listed apart in the source
[40] = biological target: HA of A/Wyoming/03/03 (H3N2) (influenza A virus)
[41] = biological target: HA of A/Fort Monmouth/1/47 (H1N1) (influenza A virus); remark: listed apart in the source
[42] = biological target: HA of ca A/Netherlands/219/03 (H7N7) (influenza A virus); remark: listed apart in the source
[43] = biological target: T2, HA of ca A/chicken/Hong Kong/G9/97 …; remark: listed apart in the source
[44] = biological target: HA of ca A/New Caledonia/20/99 (H1N1) (influenza A virus); remark: listed apart in the source

B1: Antibody 3 (antibody, V domains shown)
VH: QVQLQESGPGLVKPSQTLSLTCAISGDSVSSNNAVWNWIRQSPSRGLEWLGRTYYRSKWYNDYAESVKSRITVNPDTSKNQFSLHLKSVTPEDTAVFYCVRSGHITVFGVNVDAFDMWGQGTMVTVSS
VL: DIQMTQSPSSLSASVGDRVTITCRTSQSLSSYLHWYQQKPGKAPKLLIYAASSLQSGVPSRFSGSGSGTDFTLTISSLQPEDFATYYCQQSRTFGQGTKVEIK
[1]
  Neutralization IC50, H5-VM04: 1.19 µg/mL
[2]
  Neutralization IC50, H3-HK68: 1.37 µg/mL
[3]
  Neutralization IC50, H3-VC11: 3.4 µg/mL
[4]
  Neutralization IC50, H3-Syd97: 6.5 µg/mL
[5]
  Neutralization IC50, H3-Vic75: 1.12 µg/mL
[6]
  Neutralization IC50, H1-NJ76: 0.57 µg/mL
[7]
  Neutralization IC50, H1-TX91: 0.92 µg/mL
[8]
  Neutralization IC50, H1-Kaw86: 1.01 µg/mL
[9]
  Neutralization IC50, H3-Perth09: 1.3 µg/mL
[10]
  Neutralization IC50, H1-BJ95: 2.98 µg/mL
[11]
  Neutralization IC50, H6-HK97: 0.63 µg/mL
[12]
  Neutralization IC50, H2-MO06: 1.09 µg/mL
[13]
  Neutralization IC50, H5-HK03: 0.71 µg/mL
[14]
  Neutralization IC50, H3-WI05: 2.62 µg/mL
[15]
  Neutralization IC50, H3-Pa99: 9 µg/mL
[16]
  Neutralization IC50, H7-BC04: 2.95 µg/mL
[17]
  Neutralization IC50, H1-FM47: 1.04 µg/mL
[18]
  Neutralization IC50, H2-JP57: 0.46 µg/mL
[19]
  Neutralization IC50, H7-NLD03: 4.74 µg/mL
[20]
  Neutralization IC50, H9-HK97: 1.18 µg/mL
[21]
  Neutralization IC50, H1-Ncal99: 1.16 µg/mL
[22]
  Neutralization IC50, H7-ANU13: 4.26 µg/mL
[23]
  Neutralization IC50, H6-AB85: 0.69 µg/mL
HA of virus H1-BS10
  Neutralization IC50, H1-BS10: 2.16 µg/mL
[24]
  Neutralizing activity IC50, swine-origin A/Minnesota/11/2010: 2.2 µg/mL and 4.2 µg/mL
[25]
  Neutralization IC50, H5-VM04: 2.11 µg/mL
[26]
  Neutralization IC50, H3-HK68: 0.68 µg/mL
[27]
  Neutralization IC50, H3-Syd97: 3.75 µg/mL
[28]
  Neutralization IC50, H3-Vic75: 0.75 µg/mL
[29]
  Neutralization IC50, H1-NJ76: 1.41 µg/mL
[30]
  Neutralization IC50, H1-TX91: 0.6 µg/mL
[31]
  Neutralization IC50, H1-Kaw86: 0.58 µg/mL
[32]
  Neutralization IC50, H3-Perth09: 1.49 µg/mL
[33]
  Neutralization IC50, H1-BJ95: 3.41 µg/mL
[34]
  Neutralization IC50, H6-HK97: 1.77 µg/mL
[35]
  Neutralization IC50, H2-MO06: 2.27 µg/mL
[36]
  Neutralization IC50, H5-HK03: 4.64 µg/mL
[37]
  Neutralization IC50, H3-WI05: 2.44 µg/mL
[38]
  Neutralization IC50, H3-Pa99: 17.7 µg/mL
[39]
  Neutralization IC50, H7-BC04: 4.72 µg/mL
[40]
  Neutralization IC50, H3-Wy03: 0.63 µg/mL
[41]
  Neutralization IC50, H1-FM47: 0.92 µg/mL
[42]
  Neutralization IC50, H7-NLD03: 4.78 µg/mL
[43]
  Neutralization IC50, H9-HK97: 1.79 µg/mL
[44]
  Neutralization IC50, H1-Ncal99: 0.79 µg/mL
